Experimental data taken from the DeepSol protein solubility set.

Assay: soluble on expression in E. coli; label from the status in PepcDB or PDB records

Row | Sequence | soluble on expression in E. coli
1 | MEFMRVLLIAGGVSPEHEVSLLSAEGVLRHIPFPTDLAVIAQDGRWLLGEKALTALEAKAAPEGEHPFPPPLSWERYDVVFPLLHGRFGEDGTVQGFLELLGKPYVGAGVAASALCMDKDLSKRVLAQAGVPVVPWVAVRKGEPPVVPFDPPFFVKPANTGSSVGISRVERFQDLEAALALAFRYDEKAVVEKALSPVRELEVGVLGNVFGEASPVGEVRYEAPFYDYETKYTPGRAELLIPAPLDPGTQETVQELALKAYKVLGVRGMARVDFFLAEGELYLNELNTIPGFTPTSMYPRLFEAGGVAYPELLRRLVELALT | soluble
2 | MEFRKSPSPDGDRIELVAIYDHDERIDMNDLHRSLTGFRILTLRISATYDQDIERIAFLPTIDKLTFCKDLLNAYNFQRIIMQSYEGIKAIGSRRTRIKLNDLLAANISFPIFMNVILPDAQLNLFIKYLIAGSNHRLDGFLFAKTPNAADFNEAAIFKGVNYQPVGGREAYPEFRNIQFQLHPRTRVFYVTNNNGILATVYLDIGLRYRIDIFPAGLMSSFPLLRLPSNELTKVLRHMNPIAQLGFSLLSEKSKNRISLLRIFSDEVSISVCAYKRKEKLTLRLRNSLSSLEVHKCGPDLVIVLQNWSDCTKLDFRREMSLRHWIDHCMELATAKRIDELTLSSIKKKHKFGISLLSERLKNLICSLQVFTTDVEIILRRSIELKIVPLFLVIGQTGQIEISSFTHFFLDNFIWIRPQMSTRNWIDHCLELTNNHRLNKLIVEAGDNQEIDMDGFYRSLIGLHIKTLELKGTYSRSIQLFGSLSNVDTIVLDVELVQTTDYQRMVVLNHTKLVETRTNRVKFSLNDLLASNASFLQFTNLRIPDTQLNLFLKHWIAGSNQRQEGFSLTKEHDEQSYNQSVILKGIETRPAVRRSEHHKFDEIFTLPQYSRTLDITNCDGVEATVYFGKSWLFNLGPVTNLCCMLVWG | not soluble
3 | MEFTDPYTVDSLQCFNGFHYRGYRINQSDTDKVNRLIAIIRQEREKNIGPAAGDIIEYTCRNGDWFQSAHIEEICDGHFKICLSGSIPFCYESGDGVGYNVHEGIWTYPKRAALKPAGIREKQFRTWGHAGKCANGEVYFMACVRAWQYTEPEPLYGRYTTRNWSKYHINRQPDPEHDGEFFYMTEGFTLYSREELDRLTGILHGKLFDGIYSNSLVLWGYHMKWEILTEQEWNETKAEIHISFLGKSPVKIITCDDTHTITVYKKK | not soluble
4 | MEGFVLAGTSSGVGKTVATLATLTALEDAGYQPQPAKAGPDFIDPSHHEALVDTPSRTLDPWLAGEDGMRRTYWRGTGDICVVEGVMGLYDGTKTSTAAVAEGLDLPVVLVVDAKAGMESVAATALGFAQYADRIGVDIEVAGILAQRAHGGRHADGIRDALPEDLTYFGRIPPMSDLEIPDRHLGLHMGSEAGLDRDALSTAAETIDIERLVETARAPPEVATTERNTGDSPADRRVAVAQDSAFCFIYPSVLERLRSEASVEPFSPVAGDSVPDADAIYLPGGYPELHGESLETGGTLDEIAVRAADGVPVYGECGGLMALSESLTTTDGDTYEMAGVLPADIEMQDRYQALDHVELEARADTVAATSGAHRRGHEFHYSAATLGSDASFAFDMVRGDGIDGEHDGLTEYSTIGTYCHCHGESGAFDRLLAVPSKDILEHHHHHH | not soluble
5 | MEGLEAYDYHLPPEQIAQEGVEPRDMARLMVVYREGPFRVAHKRVRDLPEFLRPGDVLVFNESKVIPARLLARKPTGGKVEILLVRERSPGLWEALLGPARKAPPGTRLLLLSPKDLAPVPGLQAEVVAVEEDGVRLLRFQGDLVAHLEEVGEVPLPPYIKAKIPMERYQTVYARRPGSVAAPTAGLHFTPELLERLREMGVELRFLTLHVGPGTFRPVKGDPEKHEMHAEPYAIPEEVAEAVNRAKAEGRRVVAVGTTVVRALESAYREGVGVVAGEGETRLFIRPPYTFKVVDALFTNFHLPRSTLLMLVAAFLGRERTLEAYRLAVAEGYRFYSLGDAMLIL | soluble
6 | MEGLFESLPEGYREKLGRPGEYPFTRGIYPRMYLERLWTMRQYAGFSTAEESNARYRYLLSQGQTGLSVAFDLPTQLGLDPDHPMSVGEVGRVGVSIATLEDMQKLFDGIPLDQVSTSMTINAPAMMLLALYLLVAEAQGVPWDKVSGTVQNDILKEYFARGTYIYPPGPSMRLVTDIFEFCAAHVPRWNTISISGYHIREAGSTAAQEIAFTLADAKAYVRAALERGLDVDRFAPRLSFFFAAHGDIFEEAAKFRAARRLWARIMREEFGAKDPKSWMLRFHTQTGGSTLTAQEPLNNVVRTAYQALAAVLGGTQSLHTNAYDEALGLPTEKSALLALRTQQILAYESGVTRAIDPLGGSFYVEHLTDKLEREAEQILREIDALGGAVAAVEAGYFQRALEESAWQFQKEVEEGKRVIVGVNRFFDPNSPLNEPVPVQRIDPELHERRKRELAAFKANRDGESVRVGLERLREAARGEENLFPYVLEAFRRRATLGEVCGVLREEWGEYQPPR | soluble
7 | MEGMDHGSHSMPMGASSDAPAQSRTPIPPVTDADRAAVYTSHSGHQVHDSAINSYFVADKLEWQDANDGSALAWDLSGWIGGDIDRLLLRSEGERTNGKTEEAEVQALWGHAVSSSWDVVAGARQDFKPGAPQTWAAFGLQGQAISDLDVEATAFIGDAGQTAARLEADYDLLLTNDLILQPTGELNFYGKNDPQRGNGSGLSTSEFGLRLRYEITPQFAPYVGVTWNRSYGKTADYAREDDEDVAQARLVVGLRLWFLEHHHHHH | not soluble
8 | MEGWQRAFVLHSRPWSETSLMLDVFTEESGRVRLVAKGARSKRSTLKGALQPFTPLLLRFGGRGEVKTLRSAEAVSLALPLSGITLYSGLYINELLSRVLEYETRFSELFFDYLHCIQSLAGVTGTPEPALRRFELALLGHLGYGVNFTHCAGSGEPVDDTMTYRYREEKGFIASVVIDNKTFTGRQLKALNAREFPDADTLRAAKRFTRMALKPYLGGKPLKSRELFRQFMPKRTVKTHYE | soluble
9 | MEHFHGNRWDQLRAVEADILCPPPADPFQIFPSGWTRASELSEKGWRELLDRRRSQSPPPREPSPDVRRAIRRTPPPRVNRVAPIRLPERRPLRQLNANDARRPAQDAANRINQENMRAGNIDNGQPRRRALSPTQLPGVRAIPKDFNRFFRGLLTPGEFFAKSQTRYLGPFDEMPTEDTLPAADEYIILQRMGRLPDSGKSIFRQVGNLST | not soluble
10 | MEHFLQYVWQHRLYSSLSYGADAFFLEPEVIDPGMLNRDSGPDFFNAKVKVGDLLWAGNVEIHCRASDWVRHGHHLDPAYDNVVLHVVETDDLPIRHRISGEPVPVCVMHVDERLRANADFMLRTSLLPGCKDRLHELDSLEVHDWLDTLVVERLERKAAEVDRLYLSTSMDWNATAYILLARHFGFGLNNDALERLARSLPFAAIAKHRSNLLQVEALLLGQAGLLADLEDEYAEKLASEYAFLRHKFDLQPLDPSLFRLHRARPASFVHRRLGQLAAILHRCEFLFSSFVETVSAKELAQKLSVEASSYWASHYRFGKPTPVPSRSTLAAISSDALLINVAAPLRYAWLRGQSMEDYRERTIDFLRGIKPENNKPVRAFSQICRPADAAESQALIQLYREYCERRKCFFCRWGYRLLSCCKG | not soluble
11 | MEHKKSTDSRSCSQLSTSMDNIQRNLMLLEIEKNEKSSFDDVITGAESDNGWEDCLRETESVQSQWITEQSTIAYPETTRVNCDGPQSYYELADLNYKPAENTVRLARVPSQYQLDALSEIFVFDVPQHIAVKKVEASFLPKYVNTSSEVAQNSVNTTPYFVNSEYVSEMLCNEYSETY | not soluble
12 | MEIATRLKMNVKEQTEVILTNFTKMLFRRKLIKDQQSLLNKLKNIDTKDIYHFKENDMNFLLIITFQKLNGIKKGSEIEEQLIKSKGYNFIIASQSSNKTYQQVKNFKGELFLTLEFLSDIPSLPFVPEHILLSEKEKEEILSVYKEKNIAKIFVTDMMARYLGAKKGDLIKIIRKTLNTGESIYYRRVF | not soluble
13 | MEIEVTPVDILLQLVKMGKVDPWNIDIVDLTEKYIKMLREMQELDLRISARAILAAAILVRMKSEALLNEDSREQEEKEEERIRVEVDPLVPPLRRVERYYTLDDLIDALMEALEEAERRKPKKKKKVEIDEEIFVIDDFRVDIEKYVEELYKVVKKIYEKTGTPIKFWDLVPDVEPKIIARTFLYLLFLENMGRVEIIQEEPFGEILVVPM | soluble
14 | MEIGDLNEVNELVSRLNNENVKIAEVNDYIQTLSAGIEEMNVQAQQLSDFAVESSSMAEKGKEISDNVALKVSKISETSREMSNAISILAEYSKKIDEIVYVISSIASQTNLLALNASIEAARAGEAGRGFAVVAENVRELADRSKKAAEQIRDLIKEMQENTNRVIEAIQENVKVTEEVKEAIQELIAAFDDIARRANETATMVKELSEGIDEQANSVQMLVERIDSISKDVSDNLNFATQLTETVKGSIEKLEVIKNKVSQLKDELDKTLEKLEV | soluble
15 | MEIKKGLEDVYVKETEITYIDGELGRLYYRGYSIYDLAEFSNFEEVSYLILYGKLPNREELNWFQEKLREERYLPDFIIKFLREVRKDAQPMDILRTAVSLLGIEDSKNDERTDIKGIKLISKFPTIVANYARLRKGLDIIEPDPKLSHSENFLYMLYGDRPNEIKSKAMDVTLILHIDHEMNASTFASLVVASTFSDLYSSIVAGISALKGPLHGGANYEALKMFKEIGSPEKVNDYILNRLSNKQRIMGFGHRVYKTYDPRARILKQYAKLLAEKEGGEIYTLYQIAEKVEEIGIKYLGPKGIYPNVDFFSSIVFYSLGFEPDFFPAVFASARVVGWVAHIMEYIKDNKIIRPKAYYKGEIGKKYIPIDSR | soluble
16 | MEISNRLKSISEVMDRCEIAADIGTDHAYLPIYLIKNNLCKRFIASDVNAGPLKKAINNINKYKLEDKIECRLGSGLNVLKLEEVDVVVIAGMGGNLIRDIIEERLDIFKKLKYAVLQPVQNPEILREYLIKRGFNIIEEQLCIDESKYYEIIKVCYDSKIEDKDDVYYEIGDKLIDMKHPLLKEYINYKIRKYDKIYKNISEESLNALSRKNELSIKIRKLKELLSCL | not soluble
17 | MEKITFEQVKEAVFHEKMSNGLQVYLLPKQGFSKTYAVFTTNYGAIDNNFVPIGETEFTKVPDGIAHFLEHKMFEKEDGDVFFKFGEKGAFTNAFTSFTKTAYLFSSTSRVEENLETLIDFVQEPYFTEETVEKEKGIIGQEIRMYDDDPDFRAYFGVIENMYHNHPVKIDIAGTVESIAEINKDLLYLCYNTFYHPSNMVLFVVGNLEPEEMMNQIRANQAKKDFTEAAPIKRHFPEEPKTVAVKERKIHFPVQIAKNMVGIKEDIGSLEGQVALKQEIIGDVALEMLFGTTSDTYLELYNQGIIDDSFGYDYTLQDSFSFVLVGGDAKDPDMQTTKIIEAIQAAAKNGLNEADLALVKRKRIGQFLRSLNSPEFIANQFSQYVMKSASLFDILPLMETVTLEEVNNFVKNLDSEERTTSFQLLPEK | not soluble
18 | MEKKTANDVVTLARAQDRLTTLEYIEAIFEDFLEFHGDRYFADDLAVVGGVATLQGKPVTVVGIQKGRNLPENIERNFGSPNPEGYRKALRLMKQAEKFNRPVITFVNTAGAYCGIGAEERGEGEAIAQNLLEMSDLKVPIISVIIGEGGSGGALALAVADEVWMLEHTIYAVLSPEGFASILWKDGSRAKEAAELMKITATELKELAIVDKVIPEVMNGQPLEQAKINRMLQKAFISKLTELAKLDTETLLEKRYQRFRKY | not soluble
19 | MEKNDIFVVIPAYNEEKMIKNTLINLKSHGYENIIVVDDGSRDNTSKIAISEEVIVCKHIINRGLGGALKTGLKCAVKYNPKVIVTFDADGQHDPEDIFKVSEPILEDSFDVVVGSRLIDENELKNMPLIKKIGNWGLNFITYLMGGRMVTDSQGGLRAFSYDAAEIVSKQLKSNRYEVSSEFIVLFKKNNLKFKEVPIKTIYTEYSMARGTNVITGFKILFKLLIQKLILEHHHHHH | soluble
20 | MEKPSPTRRQTSSLSTISNGMTMTNDNRDTTNTNSGSTSSNNSQPSSSSTPPAASGPVTDRTKVNYVPKSDDPSSFQYYPDDPENPVNKYKFALKADSQYYDPCEESSKLSFQCLERNDYDRSKCQEYFDAYRECKKQWLTARRKNRQQWE | soluble
